Measured values: patent US20230038638A1, “COMPLEMENT FACTOR I-RELATED COMPOSITIONS AND METHODS” (published 2023)

Columns and labels:
human C4b (human) = molecular target: T1, human C4b (human) (UniProt P0C0L4)
T1 sequence: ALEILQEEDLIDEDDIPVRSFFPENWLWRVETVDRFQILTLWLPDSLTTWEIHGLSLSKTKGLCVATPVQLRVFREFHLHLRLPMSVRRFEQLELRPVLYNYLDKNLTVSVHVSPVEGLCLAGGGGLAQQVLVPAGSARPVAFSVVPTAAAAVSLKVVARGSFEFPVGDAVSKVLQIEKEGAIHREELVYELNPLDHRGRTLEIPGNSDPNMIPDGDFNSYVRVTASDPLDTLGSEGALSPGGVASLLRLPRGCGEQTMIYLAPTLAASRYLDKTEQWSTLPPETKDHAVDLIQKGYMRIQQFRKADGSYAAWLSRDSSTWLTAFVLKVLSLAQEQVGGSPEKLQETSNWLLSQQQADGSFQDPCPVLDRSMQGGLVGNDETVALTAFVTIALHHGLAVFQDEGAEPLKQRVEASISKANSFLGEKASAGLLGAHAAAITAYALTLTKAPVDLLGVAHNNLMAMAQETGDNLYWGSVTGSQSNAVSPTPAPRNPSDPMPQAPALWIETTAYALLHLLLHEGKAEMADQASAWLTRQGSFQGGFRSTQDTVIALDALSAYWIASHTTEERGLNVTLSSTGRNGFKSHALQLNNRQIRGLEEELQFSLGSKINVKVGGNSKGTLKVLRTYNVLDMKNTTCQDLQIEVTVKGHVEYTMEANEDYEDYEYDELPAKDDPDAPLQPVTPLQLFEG

[1] = molecular target: soluble human C3b (human) (UniProt P01024)

| Substance | C4b Screen Ref Fold (fold of CFI-HSA wild type) (human C4b (human)) | iC3b Screen Ref Fold (fold of CFI-HSA wild type) [1] |
| --- | --- | --- |
| CFI-HSA D425S (enzyme) | 1.13 | 2.21 |
| CFI-HSA D425T (enzyme) | 2.05 | 2.16 |
| CFI-HSA D425V (enzyme) | 2.51 | 0.98 |
| CFI-HSA D425W (enzyme) | 0.89 | 1.59 |
| CFI-HSA D425Y (enzyme) | 2.87 | 1.15 |
| CFI-HSA D506F (enzyme) | 0.35 | -0.03 |
| CFI-HSA D506H (enzyme) | 0.31 | 0 |
| CFI-HSA D506I (enzyme) | 0.16 | -0.02 |
| CFI-HSA D506K (enzyme) | 0.3 | 0.03 |
| CFI-HSA D506L (enzyme) | 0.41 | -0.03 |
| CFI-HSA D506M (enzyme) | 0.05 | 0.01 |
| CFI-HSA D506N (enzyme) | 0.03 | 0.05 |
| CFI-HSA D506P (enzyme) | 0.18 | -0.04 |
| CFI-HSA D506Q (enzyme) | 0.47 | -0.02 |
| CFI-HSA D506S (enzyme) | -0.02 | 0 |
| CFI-HSA D506T (enzyme) | 0.39 | 0.04 |
| CFI-HSA D506W (enzyme) | 0.01 | 0.03 |
| CFI-HSA D506Y (enzyme) | 0.02 | -0.05 |

| Substance | C4b Screen Ref Fold (fold of CFI-HSA wild type) (human C4b (human)) | iC3b Screen Ref Fold (fold of CFI-HSA wild type) [1] |
| --- | --- | --- |
| CFI-HSA E457G; E461Q; F464Y (enzyme) | 6.56 | 1.25 |
| CFI-HSA E457G; E461Q; R462K (enzyme) | 6.74 | 1.54 |
| CFI-HSA E457G; F464Y (enzyme) | 5.55 | 1.31 |
| CFI-HSA E457G; N531G (enzyme) | 6.5 | 0.88 |
| CFI-HSA E457G; R462K (enzyme) | 4.33 | 1.11 |
| CFI-HSA E457G; R462K; F464Y (enzyme) | 4.82 | 0.96 |
| CFI-HSA E457G; S507A (enzyme) | 0.01 | -0.01 |
| CFI-HSA E457G; S507A; GGSSGG (SEQ ID NO: 6); CCP_1-4 (enzyme) | 0.12 | 0.01 |
| CFI-HSA E457G; Y408L (enzyme) | 4.83 | 1.39 |
| CFI-HSA E461Q; F464Y (enzyme) | 6.36 | 1.11 |
| CFI-HSA E461Q; R462K (enzyme) | 4.69 | 1.23 |
| CFI-HSA E461Q; R462K; F464Y (enzyme) | 4.92 | 0.59 |
| CFI-HSA F208Y (enzyme) | 0.6 | 1.5 |
| CFI-HSA F208Y; F246Y; F480Y; F537Y (enzyme) | 0.42 | 1.45 |
| CFI-HSA F246Y (enzyme) | 0.48 | 1.56 |
| CFI-HSA F464A (enzyme) | -0.01 | 0.02 |
| CFI-HSA F464H (enzyme) | 0.1 | 0.23 |
| CFI-HSA F464I (enzyme) | 0.09 | 0.01 |
